Source: patent US20240148892A1 (DUALITY BIOLOGICS SUZHOU, published 2024)

T1: human full-length B7H3 expressed on MCF-7 cells (human, UniProt Q5ZPR3 29-534)
T1 sequence: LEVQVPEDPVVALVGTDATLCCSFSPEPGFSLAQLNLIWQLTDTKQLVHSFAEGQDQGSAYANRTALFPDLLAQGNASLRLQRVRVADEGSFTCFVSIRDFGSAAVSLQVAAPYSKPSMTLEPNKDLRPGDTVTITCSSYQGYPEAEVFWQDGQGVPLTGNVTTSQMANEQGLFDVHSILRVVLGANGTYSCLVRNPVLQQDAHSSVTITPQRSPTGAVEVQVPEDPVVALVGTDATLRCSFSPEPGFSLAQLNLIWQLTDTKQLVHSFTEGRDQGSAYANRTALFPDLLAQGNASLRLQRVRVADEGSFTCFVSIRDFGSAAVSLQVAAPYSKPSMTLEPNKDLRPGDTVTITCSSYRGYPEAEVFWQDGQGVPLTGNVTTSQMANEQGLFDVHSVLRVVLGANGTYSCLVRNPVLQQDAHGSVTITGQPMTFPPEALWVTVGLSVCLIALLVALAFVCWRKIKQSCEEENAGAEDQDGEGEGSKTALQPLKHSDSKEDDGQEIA

T2: human 4IgB7H3 extracellular domain, 6xHis (human, UniProt Q5ZPR3 29-461)
T2 construct: range 29-461; Made in house in Expi293F cells; 47.8 kDa used in the SPR calculation; also called analyte human 4IgB7H3
T2 sequence: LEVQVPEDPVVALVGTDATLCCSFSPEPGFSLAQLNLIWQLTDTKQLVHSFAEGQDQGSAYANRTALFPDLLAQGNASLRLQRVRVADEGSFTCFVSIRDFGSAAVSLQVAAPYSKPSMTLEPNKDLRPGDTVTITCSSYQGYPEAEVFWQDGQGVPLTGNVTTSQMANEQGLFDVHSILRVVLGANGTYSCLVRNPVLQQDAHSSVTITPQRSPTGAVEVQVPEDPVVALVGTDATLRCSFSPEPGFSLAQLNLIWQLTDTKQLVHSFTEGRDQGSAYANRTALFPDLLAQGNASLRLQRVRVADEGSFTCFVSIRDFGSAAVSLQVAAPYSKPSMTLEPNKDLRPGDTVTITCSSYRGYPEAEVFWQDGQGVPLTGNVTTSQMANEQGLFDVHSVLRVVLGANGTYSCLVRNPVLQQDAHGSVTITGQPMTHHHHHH


Columns and labels:
[1] = biological target: T3, Cynomolgus monkey B7-H3/CD276 protein, His tag (cynomolgus monkey); assay: SPR (Biacore 8K), antibody captured on anti-human Fc IgG, cynomolgus monkey B7H3 as analyte, 1:1 model
T3 construct: Bought protein; 49 kDa used in the SPR calculation; also called ACRO B73-C52Ha
Procedure: (§1) The affinity of antibodies for cynomolgus monkey B7H3 was determined using surface plasmon resonance (SPR). The affinity of antibodies for cynomolgus monkey B7H3 was determined by Biacore 8K. An activator was prepared by mixing 400 mM EDC and 100 mM NHS (GE) immediately prior to injection into the channel. The CMS sensor chip was activated for 420 seconds with the activator. Goat anti-human Fc IgG (30 μg/mL in 10 mM NaAc, pH 4.5) was then injected into the channel at a flow rate of 10 μL/min for 420 seconds. The chip was deactivated by 1 M ethanolamine hydrochloric acid. The antibodies diluted in running buffer (1×HBS-EP+) were injected into the channel at a flow rate of 10 μL/min for 30 seconds. […] Glycine (10 mM, pH 1.5) was injected as regeneration buffer after the dissociation phase.
The sensorgrams for the reference channel and the buffer channel were subtracted from the test sensorgrams. […] The molecular weight of the cynomolgus monkey B7H3 used in the calculation was 49 kDa.
(§2) The experimental data were fitted by a 1:1 binding model bundled with the Biacore 8K evaluation software.

[2] = biological target: T1, human full-length B7H3 expressed on …; assay: cell-based or functional assay
[3] = biological target: T2, human 4IgB7H3 extracellular domain, …; assay: SPR (Biacore 8K), antibody captured on anti-human Fc IgG, human 4IgB7H3 as analyte, 1:1 model
Procedure: as §1, with “human 4IgB7H3” for “cynomolgus monkey B7H3”
The sensorgrams for the reference channel and the buffer channel were subtracted from the test sensorgrams. The experimental data were fitted with a 1:1 binding model. The molecular weight of the human 4IgB7H3 used in the calculation was 47.8 kDa.
as §2

[4] = biological target: T1, human full-length B7H3 expressed on …; assay: flow cytometry (FACS) on MCF-7 cells expressing human full-length B7H3
Procedure: FACS was used to detect the binding of antibodies to human B7H3. This method allows quantitative analysis and identification of specific molecules expressed on the surface of living cells. Unlabeled cells were used as a control to set a threshold before the assay, and the percentage change for each group that exceeded the fluorescence intensity threshold was analyzed. MCF-7 cells expressing human full-length B7H3 (1×10⁵ cells/well) were incubated with various concentrations of antibodies (3.16-fold serially diluted with 1×DPBS/1% BSA from 50 nM to 0.0005 nM) in a volume of 100 μL/well in a refrigerator set to 4° C. for 1 h. Anti-human B7H3 reference antibody enoblituzumab (MacroGeneics) was used as a positive control. Human IgG1 isotype antibody was used as a negative control. After washing the cells with 1×DPBS/1% BSA, Alexa 647 goat anti-human antibody (diluted in a 1:500 ratio in 1×DPBS/1% BSA) was added. The cells were incubated in a refrigerator set to 4° C. for 0.5 h in the dark. The mean fluorescence intensity (MFI) of the cells was measured by a flow cytometry and analyzed by FlowJo. EC₅₀ values were calculated by four-parameter non-linear regression analysis using GraphPad Prism 7 software.

Binder	Kd [1] [nM]	koff [1] [s⁻¹]	kon [1] [M⁻¹ s⁻¹]	Antibody internalization EC50 (nM), MCF-7 cells, high-content imaging [2] [nM]	Kd [3] [nM]	koff [3] [s⁻¹]	kon [3] [M⁻¹ s⁻¹]	EC50 [4] [nM]
W301088-1.145.16-xIgG1KV320 (antibody, V domains shown) VH: DVQLQESGPGLVKPSQSLSLTCTVTDYSITGDYAWNWIRQFPGNKLEWMGYISYSGSTSYNPSLQSRISITRDTSKNQFFLQLNSVTSEDTATYFCARSLGRRWYFVVWGAGTTVTVSA VL: not shown	0.0564	2.94e-05	521000	0.51	0.0515	3.39e-05	657000	1.16
W301088-1.145.16-z3-p1-uIgG1KV320 (antibody, V domains shown, Humanized, PTM-removed (VL N027dQ) human IgG1 LALA kappa antibody; also called WBP301088; W301088-z3-p1) VH: QVQLQESGPGLVKPSQTLSLTCTVTDYSITGDYAWNWIRQHPGKGLEWIGYISYSGSTSYNPSLQSRVTISRDTSKNQFSLKLSSVTAADTAVYFCARSLGRRWYFVVWGQGTTVTVSS VL: not shown	0.0574	3.02e-05	527000	0.44	0.0708	4.65e-05	657000	1.08
Enoblituzumab (MacroGenics) (antibody, V domains shown) VH: EVQLVESGGGLVQPGGSLRLSCAASGFTFSSFGMHWVRQAPGKGLEWVAYISSDSSAIYYADTVKGRFTISRDNAKNSLYLQMNSLRDEDTAVYYCGRGRENIYYGSRLDYWGQGTTVTVSS VL: DIQLTQSPSFLSASVGDRVTITCKASQNVDTNVAWYQQKPGKAPKALIYSASYRYSGVPSRFSGSGSGTDFTLTISSLQPEDFATYYCQQYNNYPFTFGQGTKLEIKR	0.441	8.14e-05	185000	1.95	1.02	0.000126	124000	2.49
